Results taken from patent publication US20240000838A1 (SIMCERE INNOVATION, published 2024).

T1: CD5 on human T cells (autologous and allogeneic Pan-T cells) and on the T-ALL cell line CCRF-CEM (human, UniProt P06127 25-495)
T1 sequence (looked up): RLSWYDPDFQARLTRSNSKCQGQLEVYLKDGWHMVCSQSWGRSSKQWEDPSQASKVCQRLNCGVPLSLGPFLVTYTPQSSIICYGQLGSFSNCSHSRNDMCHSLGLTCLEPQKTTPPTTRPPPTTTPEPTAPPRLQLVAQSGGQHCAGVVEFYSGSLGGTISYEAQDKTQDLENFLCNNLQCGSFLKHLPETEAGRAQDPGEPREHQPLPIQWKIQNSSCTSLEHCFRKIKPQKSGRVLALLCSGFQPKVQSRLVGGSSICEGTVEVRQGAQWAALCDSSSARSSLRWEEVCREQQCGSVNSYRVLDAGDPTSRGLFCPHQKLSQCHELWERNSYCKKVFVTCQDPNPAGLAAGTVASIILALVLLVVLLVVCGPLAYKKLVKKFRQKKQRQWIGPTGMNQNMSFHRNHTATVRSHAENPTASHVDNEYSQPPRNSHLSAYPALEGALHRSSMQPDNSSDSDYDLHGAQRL

B1: CD5/CD33 Dual-CAR, construct S037 (other)
chain: NIQLVQSGPELKKPGETVKISCKASGYTFTNYGMNWVKQAPGKGLRWMGWINTHTGEPTYADDFKGRFAFSLETSASTAYLQINNLKNEDTATYFCTRRGYDWYFDVWGAGTTVTVSSGGGGSDIQMTQSPSSLSASVGDRVTITCRASESVDNYGISFMNWFQQKPGKAPKLLIYAASNQGSGVPSRFSGSGSGTDFTLTISSLQPDDFATYYCQQSKEVPWTFGQGTKVEIKGSTSGSGKPGSGEGSTKGQVQLVQSGAEVKKPGSSVKVSCKASGYTFTDYNMHWVRQAPGQGLEWIGYIYPYNGGTGYNQKFKSKATITADESTNTAYMELSSLRSEDTAVYYCARGRPAMDYWGQGTLVTVSSGGGGSDIKMTQSPSSMYASLGERVTITCKASQDINSYLSWFHHKPGKSPKTLIYRANRLVDGVPSRFSGSGSGQDYSLTISSLDYEDMGIYYCQQYDESPWTFGGGTKLEMKASTTTPAPRPPTPAPTIASQPLSLRPEACRPAAGGAVHTRGLDFACDIYIWAPLAGTCGVLLLSLVITLYCKRGRKKLLYIFKQPFMRPVQTTQEEDGCSCRFPEEEEGGCELRVKFSRSADAPAYKQGQNQLYNELNLGRREEYDVLDKRRGRDPEMGGKPRRKNPQEGLYNELQKDKMAEAYSEIGMKGERRRGKGHDGLYQGLSTATKDTYDALHMQALPPR
B2: CD5/CD33 Dual-CAR, construct S039 (other)
chain: QVQLVQSGAEVKKPGSSVKVSCKASGYTFTDYNMHWVRQAPGQGLEWIGYIYPYNGGTGYNQKFKSKATITADESTNTAYMELSSLRSEDTAVYYCARGRPAMDYWGQGTLVTVSSGGGGSDIKMTQSPSSMYASLGERVTITCKASQDINSYLSWFHHKPGKSPKTLIYRANRLVDGVPSRFSGSGSGQDYSLTISSLDYEDMGIYYCQQYDESPWTFGGGTKLEMKGSTSGSGKPGSGEGSTKGNIQLVQSGPELKKPGETVKISCKASGYTFTNYGMNWVKQAPGKGLRWMGWINTHTGEPTYADDFKGRFAFSLETSASTAYLQINNLKNEDTATYFCTRRGYDWYFDVWGAGTTVTVSSGGGGSDIQMTQSPSSLSASVGDRVTITCRASESVDNYGISFMNWFQQKPGKAPKLLIYAASNQGSGVPSRFSGSGSGTDFTLTISSLQPDDFATYYCQQSKEVPWTFGQGTKVEIKASTTTPAPRPPTPAPTIASQPLSLRPEACRPAAGGAVHTRGLDFACDIYIWAPLAGTCGVLLLSLVITLYCKRGRKKLLYIFKQPFMRPVQTTQEEDGCSCRFPEEEEGGCELRVKFSRSADAPAYKQGQNQLYNELNLGRREEYDVLDKRRGRDPEMGGKPRRKNPQEGLYNELQKDKMAEAYSEIGMKGERRRGKGHDGLYQGLSTATKDTYDALHMQALPPR
B3: CD5/CD33 Dual-CAR, construct S040 (other)
chain: DIQMTQSPSSLSASVGDRVTITCRASQDINSYLSWFQQKPGKAPKTLIYRANRLESGVPSRFSGSGSGTDYTLTISSLQYEDFGIYYCQQYDESPWTFGGGTKLEIKGGGGSQVQLVQSGAEVKKPGSSVKVSCKASGYTFTDYNMHWVRQAPGQGLEWIGYIYPYNGGTGYNQKFKSKATITADESTNTAYMELSSLRSEDTAVYYCARGRPAMDYWGQGTLVTVSSGSTSGSGKPGSGEGSTKGDIQMTQSPSSLSASVGDRVTITCRASESVDNYGISFMNWFQQKPGKAPKLLIYAASNQGSGVPSRFSGSGSGTDFTLTISSLQPDDFATYYCQQSKEVPWTFGQGTKVEIKGGGGSEIQLVQSGGGLVKPGGSVRISCAASGYTFTNYGMNWVRQAPGKGLEWMGWINTHTGEPTYADSFKGRFTFSLDDSKNTAYLQINSLRAEDTAVYFCTRRGYDWYFDVWGQGTTVTVSSASTTTPAPRPPTPAPTIASQPLSLRPEACRPAAGGAVHTRGLDFACDIYIWAPLAGTCGVLLLSLVITLYCKRGRKKLLYIFKQPFMRPVQTTQEEDGCSCRFPEEEEGGCELRVKFSRSADAPAYKQGQNQLYNELNLGRREEYDVLDKRRGRDPEMGGKPRRKNPQEGLYNELQKDKMAEAYSEIGMKGERRRGKGHDGLYQGLSTATKDTYDALHMQALPPR
B4: CD5/CD33 Dual-CAR, construct S042 (other)
chain: DIQMTQSPSSLSASVGDRVTITCRASESVDNYGISFMNWFQQKPGKAPKLLIYAASNQGSGVPSRFSGSGSGTDFTLTISSLQPDDFATYYCQQSKEVPWTFGQGTKVEIKGGGGSEIQLVQSGGGLVKPGGSVRISCAASGYTFTNYGMNWVRQAPGKGLEWMGWINTHTGEPTYADSFKGRFTFSLDDSKNTAYLQINSLRAEDTAVYFCTRRGYDWYFDVWGQGTTVTVSSGSTSGSGKPGSGEGSTKGDIQMTQSPSSLSASVGDRVTITCRASQDINSYLSWFQQKPGKAPKTLIYRANRLESGVPSRFSGSGSGTDYTLTISSLQYEDFGIYYCQQYDESPWTFGGGTKLEIKGGGGSQVQLVQSGAEVKKPGSSVKVSCKASGYTFTDYNMHWVRQAPGQGLEWIGYIYPYNGGTGYNQKFKSKATITADESTNTAYMELSSLRSEDTAVYYCARGRPAMDYWGQGTLVTVSSASTTTPAPRPPTPAPTIASQPLSLRPEACRPAAGGAVHTRGLDFACDIYIWAPLAGTCGVLLLSLVITLYCKRGRKKLLYIFKQPFMRPVQTTQEEDGCSCRFPEEEEGGCELRVKFSRSADAPAYKQGQNQLYNELNLGRREEYDVLDKRRGRDPEMGGKPRRKNPQEGLYNELQKDKMAEAYSEIGMKGERRRGKGHDGLYQGLSTATKDTYDALHMQALPPR
B5: CD5/CD33 Dual-CAR, construct S041 (other)
chain: EIQLVQSGGGLVKPGGSVRISCAASGYTFTNYGMNWVRQAPGKGLEWMGWINTHTGEPTYADSFKGRFTFSLDDSKNTAYLQINSLRAEDTAVYFCTRRGYDWYFDVWGQGTTVTVSSGGGGSDIQMTQSPSSLSASVGDRVTITCRASESVDNYGISFMNWFQQKPGKAPKLLIYAASNQGSGVPSRFSGSGSGTDFTLTISSLQPDDFATYYCQQSKEVPWTFGQGTKVEIKGSTSGSGKPGSGEGSTKGQVQLVQSGAEVKKPGSSVKVSCKASGYTFTDYNMHWVRQAPGQGLEWIGYIYPYNGGTGYNQKFKSKATITADESTNTAYMELSSLRSEDTAVYYCARGRPAMDYWGQGTLVTVSSGGGGSDIQMTQSPSSLSASVGDRVTITCRASQDINSYLSWFQQKPGKAPKTLIYRANRLESGVPSRFSGSGSGTDYTLTISSLQYEDFGIYYCQQYDESPWTFGGGTKLEIKASTTTPAPRPPTPAPTIASQPLSLRPEACRPAAGGAVHTRGLDFACDIYIWAPLAGTCGVLLLSLVITLYCKRGRKKLLYIFKQPFMRPVQTTQEEDGCSCRFPEEEEGGCELRVKFSRSADAPAYKQGQNQLYNELNLGRREEYDVLDKRRGRDPEMGGKPRRKNPQEGLYNELQKDKMAEAYSEIGMKGERRRGKGHDGLYQGLSTATKDTYDALHMQALPPR
B6: CD5/CD33 Dual-CAR, construct S036 (other)
chain: DIKMTQSPSSMYASLGERVTITCKASQDINSYLSWFHHKPGKSPKTLIYRANRLVDGVPSRFSGSGSGQDYSLTISSLDYEDMGIYYCQQYDESPWTFGGGTKLEMKGGGGSQVQLVQSGAEVKKPGSSVKVSCKASGYTFTDYNMHWVRQAPGQGLEWIGYIYPYNGGTGYNQKFKSKATITADESTNTAYMELSSLRSEDTAVYYCARGRPAMDYWGQGTLVTVSSGSTSGSGKPGSGEGSTKGDIQMTQSPSSLSASVGDRVTITCRASESVDNYGISFMNWFQQKPGKAPKLLIYAASNQGSGVPSRFSGSGSGTDFTLTISSLQPDDFATYYCQQSKEVPWTFGQGTKVEIKGGGGSNIQLVQSGPELKKPGETVKISCKASGYTFTNYGMNWVKQAPGKGLRWMGWINTHTGEPTYADDFKGRFAFSLETSASTAYLQINNLKNEDTATYFCTRRGYDWYFDVWGAGTTVTVSSASTTTPAPRPPTPAPTIASQPLSLRPEACRPAAGGAVHTRGLDFACDIYIWAPLAGTCGVLLLSLVITLYCKRGRKKLLYIFKQPFMRPVQTTQEEDGCSCRFPEEEEGGCELRVKFSRSADAPAYKQGQNQLYNELNLGRREEYDVLDKRRGRDPEMGGKPRRKNPQEGLYNELQKDKMAEAYSEIGMKGERRRGKGHDGLYQGLSTATKDTYDALHMQALPPR
B7: CD5/CD33 Dual-CAR, construct S038 (other)
chain: DIQMTQSPSSLSASVGDRVTITCRASESVDNYGISFMNWFQQKPGKAPKLLIYAASNQGSGVPSRFSGSGSGTDFTLTISSLQPDDFATYYCQQSKEVPWTFGQGTKVEIKGGGGSNIQLVQSGPELKKPGETVKISCKASGYTFTNYGMNWVKQAPGKGLRWMGWINTHTGEPTYADDFKGRFAFSLETSASTAYLQINNLKNEDTATYFCTRRGYDWYFDVWGAGTTVTVSSGSTSGSGKPGSGEGSTKGDIKMTQSPSSMYASLGERVTITCKASQDINSYLSWFHHKPGKSPKTLIYRANRLVDGVPSRFSGSGSGQDYSLTISSLDYEDMGIYYCQQYDESPWTFGGGTKLEMKGGGGSQVQLVQSGAEVKKPGSSVKVSCKASGYTFTDYNMHWVRQAPGQGLEWIGYIYPYNGGTGYNQKFKSKATITADESTNTAYMELSSLRSEDTAVYYCARGRPAMDYWGQGTLVTVSSASTTTPAPRPPTPAPTIASQPLSLRPEACRPAAGGAVHTRGLDFACDIYIWAPLAGTCGVLLLSLVITLYCKRGRKKLLYIFKQPFMRPVQTTQEEDGCSCRFPEEEEGGCELRVKFSRSADAPAYKQGQNQLYNELNLGRREEYDVLDKRRGRDPEMGGKPRRKNPQEGLYNELQKDKMAEAYSEIGMKGERRRGKGHDGLYQGLSTATKDTYDALHMQALPPR

Each binder was assayed against T1, CD5 on human T cells (autologous and …) (assay: cell-based or functional assay).

Binder | elimination of CCRF-CEM cells after 18 hours (luciferase-based killing assay)
B1 | ~100%
B2 | ~100%
B3 | ~100%
B4 | ~100%
B5 | ~100%
B6 | ~100%
B7 | ~100%
